From doi:10.1101/2025.05.27.656304, “Structure of the conjugation surface exclusion protein TraT” (bioRxiv, 2025)

Biological target: the molecule itself
Assay: cryo-EM structure; purified TraT (12 mg/ml) in 100 mM Tris, 150 mM NaCl, 0.02% DDM, pH 8; global resolution 2.01 Å

B1: F plasmid TraT complex (Twin-Strep tagged recombinant TraT) (complex, Escherichia coli (F plasmid), UniProt P13979 22-244, looked up)
chain: CGAMSTAIKKRNLEVKTQMSETIWLEPASERTVFLQIKNTSDKDMSGLQGKIADAVKAKGYQVVTSPDKAYYWIQANVLKADKMDLRESQGWLNRGYEGAAVGAALGAGITGYNSNSAGATLGVGLAAGLVGMAADAMVEDVNYTMITDVQIAERTKATVTTDNVAALRQGTSGAKIQTSTETGNQHKYQTRVVSNANKVNLKFEEAKPVLEDQLAKSIANIL
modifications: lipid anchor on the N-terminal cysteine (density not resolved)
notes: TraT surface exclusion outer membrane lipoprotein of the E. coli F plasmid; the traT gene was cloned into a pET22b-derived vector; the protein in the structure begins at the lipidated N-terminal cysteine; Homodecamer by cryo-EM; also called TraTF; TraT-TS; copies: 10
stoichiometry N: 10
